Where “and” joins values, the source holds several entries; their conditions need not be identical. Equal entries are not always repeated. Where two headings read alike, the source gives them in different places.
B2: E. coli MS115-1 Trip13 E159Q (purified) (enzyme)
chain: MNVKPSLDELFERRINFPDFEPQERLARLVGLDEHKDRLSKILGLLVNPYGIQEWAKKYHPDARAAVDTVLRRPPLVVLAGDVGSGKTELAETIGDAVARQEDIDITLYPLSLATRGQGRVGEMTQLVSAAFDYTIEAADKLKNTNGKARGAVLLLIDQADALAQSRENAQMHHEDRAGVNAFIRGIDRIANQKLPAAVLMCTNRLKALDPAVQRRAAEILTFSRPNDEQRHYLLHSKLTGLGLNSTAVEELVRLTGPRDPNSPGFTFSDITQRLIPSIILAAYPYNAVSVHSALQVVNKMTPTPAFIDRQ
B7: P. aeruginosa ATCC27853 HORMA2 (purified in complexes) (natural protein)
chain: MSTVATYSYTHSVTYVTDNILKSLKDIILLSGLDPEHFADRWESNTRAIKTWLGTGDLRKVILEIYNPATDKLVTRWDIDIVYGWSDGDGSFWTDTEQLKYAIKKAGLLPSQAKYKLMLDTKPGRPDVEGWSKGSYRSTDGMVKQSLGSTVEHSGLAGQAGYWRQR

Assays:
[1] = target: Rhizobiales sp. Trip13 (Rhizobiales sp.); test: crystal structure
[2] = target: E. coli MS115-1 CdnC (purified, in complexes with HORMA) (E. coli MS115-1) (UniProt D7Y2H2); test: SEC
[3] = target: E. coli MS115-1 CdnC (purified, in complexes with HORMA) (E. coli MS115-1) (UniProt D7Y2H2); test: SEC; remark: listed apart in the source
Ec CdnC:HORMA:Trip13^EQ = target: T1, Ec CdnC:HORMA:Trip13^EQ (Escherichia coli, UniProt D7Y2H4, E159Q); test: crystal structure, […] Å; assay type: binding; conditions: four of six Trip13 subunits (A-D); 1 mM ATP, 5 mM MgCl2
T1 sequence (D7Y2H4 1-311 E159Q): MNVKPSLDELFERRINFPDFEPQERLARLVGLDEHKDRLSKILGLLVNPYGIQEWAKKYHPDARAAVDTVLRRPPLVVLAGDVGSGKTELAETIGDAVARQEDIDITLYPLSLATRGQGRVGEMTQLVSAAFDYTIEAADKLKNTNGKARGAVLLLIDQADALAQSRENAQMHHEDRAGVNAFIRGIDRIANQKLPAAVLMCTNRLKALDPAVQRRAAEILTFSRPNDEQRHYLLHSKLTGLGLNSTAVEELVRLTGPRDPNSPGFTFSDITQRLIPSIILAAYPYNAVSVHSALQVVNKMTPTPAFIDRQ
T1 sequence (D7Y2H2 1-321 partner): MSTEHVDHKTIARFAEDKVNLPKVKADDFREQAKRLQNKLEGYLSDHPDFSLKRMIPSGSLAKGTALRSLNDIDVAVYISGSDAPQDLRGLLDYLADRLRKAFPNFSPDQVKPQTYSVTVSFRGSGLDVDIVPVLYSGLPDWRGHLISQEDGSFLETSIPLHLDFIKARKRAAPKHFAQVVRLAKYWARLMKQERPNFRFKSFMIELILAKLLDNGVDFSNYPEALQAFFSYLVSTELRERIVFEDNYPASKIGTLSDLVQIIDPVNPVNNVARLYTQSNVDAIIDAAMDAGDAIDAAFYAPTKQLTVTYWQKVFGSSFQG
T1 sequence (D7Y2H3 1-172 partner): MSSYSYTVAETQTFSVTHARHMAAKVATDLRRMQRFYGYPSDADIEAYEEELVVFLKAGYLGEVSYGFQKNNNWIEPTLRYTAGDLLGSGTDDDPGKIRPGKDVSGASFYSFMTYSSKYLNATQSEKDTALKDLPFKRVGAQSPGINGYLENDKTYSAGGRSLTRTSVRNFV

Ec CdnC = target: T2, Ec CdnC (Escherichia coli, UniProt D7Y2H2); test: crystal structure, […] Å; assay type: binding; conditions: Mg2+; active site; ATP co-purified from E. coli
T2 sequence (D7Y2H2 1-321): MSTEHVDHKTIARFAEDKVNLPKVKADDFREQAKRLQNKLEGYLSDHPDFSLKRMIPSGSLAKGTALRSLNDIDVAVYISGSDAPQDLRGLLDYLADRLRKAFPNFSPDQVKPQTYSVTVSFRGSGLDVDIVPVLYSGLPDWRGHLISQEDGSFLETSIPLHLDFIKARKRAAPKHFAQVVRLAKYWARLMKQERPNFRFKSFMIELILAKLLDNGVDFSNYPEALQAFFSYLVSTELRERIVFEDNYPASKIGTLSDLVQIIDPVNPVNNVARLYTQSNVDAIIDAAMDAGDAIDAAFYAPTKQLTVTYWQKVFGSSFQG

[4] = target: E. coli MS115-1 CdnC (purified, in complexes with HORMA) (E. coli MS115-1) (UniProt D7Y2H2); test: crystal structure
[5] = target: T3, Ec CdnC:HORMA-ΔN (crystal) (Escherichia coli, UniProt D7Y2H2); test: crystal structure; assay type: binding; conditions: active site; copies contain either no ligand or AMP; co-purified
T3 sequence (D7Y2H2 1-321): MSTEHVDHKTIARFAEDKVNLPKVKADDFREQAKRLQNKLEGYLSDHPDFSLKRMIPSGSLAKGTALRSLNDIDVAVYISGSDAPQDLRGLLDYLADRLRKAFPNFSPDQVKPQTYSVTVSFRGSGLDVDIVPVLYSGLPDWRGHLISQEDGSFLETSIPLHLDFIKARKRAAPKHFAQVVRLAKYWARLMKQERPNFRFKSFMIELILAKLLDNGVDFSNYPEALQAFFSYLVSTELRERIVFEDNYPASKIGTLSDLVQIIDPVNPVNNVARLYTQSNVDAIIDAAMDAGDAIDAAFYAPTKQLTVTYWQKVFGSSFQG
T3 sequence (D7Y2H3 12-172 partner): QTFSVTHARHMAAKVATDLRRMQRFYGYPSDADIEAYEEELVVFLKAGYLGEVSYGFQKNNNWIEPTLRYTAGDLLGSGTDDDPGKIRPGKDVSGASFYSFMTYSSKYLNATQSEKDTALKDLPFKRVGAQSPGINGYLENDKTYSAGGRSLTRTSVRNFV

Pa CdnD = target: T4, Pa CdnD (Pseudomonas aeruginosa ATCC27853, UniProt P0DTF7 1-300); test: filter binding
T4 sequence: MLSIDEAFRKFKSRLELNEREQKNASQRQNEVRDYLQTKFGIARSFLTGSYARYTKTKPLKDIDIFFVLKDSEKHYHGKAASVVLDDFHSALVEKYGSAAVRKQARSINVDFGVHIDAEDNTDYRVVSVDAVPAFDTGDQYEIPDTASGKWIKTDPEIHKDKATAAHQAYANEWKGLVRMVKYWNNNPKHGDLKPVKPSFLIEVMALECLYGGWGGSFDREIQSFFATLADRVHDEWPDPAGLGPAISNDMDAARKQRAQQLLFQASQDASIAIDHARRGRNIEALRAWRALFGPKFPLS

crystal structure [6] = target: the molecule itself; test: crystal structure
[7] = target: T5, Ec HORMA:CdnC complex (co-expressed, purified, 1:1) (E. coli MS115-1, UniProt D7Y2H2 1-321; D7Y2H3 1-172); test: SEC-MALS
T5 sequence (looked up) 1: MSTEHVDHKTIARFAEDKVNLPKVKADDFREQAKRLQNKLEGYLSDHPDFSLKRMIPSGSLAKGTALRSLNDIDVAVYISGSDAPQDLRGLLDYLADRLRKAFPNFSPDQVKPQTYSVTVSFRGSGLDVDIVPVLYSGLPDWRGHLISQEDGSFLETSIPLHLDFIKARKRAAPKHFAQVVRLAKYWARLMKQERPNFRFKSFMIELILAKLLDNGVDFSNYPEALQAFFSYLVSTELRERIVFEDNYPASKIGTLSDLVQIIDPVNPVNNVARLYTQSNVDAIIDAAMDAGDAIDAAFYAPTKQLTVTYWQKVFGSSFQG
T5 sequence (looked up) 2: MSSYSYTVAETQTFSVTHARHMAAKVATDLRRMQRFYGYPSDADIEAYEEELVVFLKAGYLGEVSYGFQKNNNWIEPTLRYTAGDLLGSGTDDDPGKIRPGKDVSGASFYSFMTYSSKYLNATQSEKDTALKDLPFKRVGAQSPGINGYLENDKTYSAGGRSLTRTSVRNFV

[8] = target: B7; test: crystal structure
[9] = target: T6, P. aeruginosa ATCC27853 CdnD (purified) (P. aeruginosa ATCC27853, UniProt P0DTF7 1-300); test: SEC-MALS
T6 sequence: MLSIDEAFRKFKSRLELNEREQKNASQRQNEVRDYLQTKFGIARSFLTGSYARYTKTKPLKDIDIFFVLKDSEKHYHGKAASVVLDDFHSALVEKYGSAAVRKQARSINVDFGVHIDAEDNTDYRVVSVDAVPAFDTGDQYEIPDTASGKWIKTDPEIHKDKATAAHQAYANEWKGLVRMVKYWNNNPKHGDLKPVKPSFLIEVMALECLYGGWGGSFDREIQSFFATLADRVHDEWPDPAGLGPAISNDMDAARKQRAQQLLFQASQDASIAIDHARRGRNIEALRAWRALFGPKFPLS

[10] = target: B7; test: SEC-MALS
[11] = target: B2; test: crystal structure
[12] = target: T7, E. coli MS115-1 CdnC (purified, in complexes with HORMA) (E. coli MS115-1, UniProt D7Y2H2 1-321); test: SEC-MALS
T7 sequence (looked up): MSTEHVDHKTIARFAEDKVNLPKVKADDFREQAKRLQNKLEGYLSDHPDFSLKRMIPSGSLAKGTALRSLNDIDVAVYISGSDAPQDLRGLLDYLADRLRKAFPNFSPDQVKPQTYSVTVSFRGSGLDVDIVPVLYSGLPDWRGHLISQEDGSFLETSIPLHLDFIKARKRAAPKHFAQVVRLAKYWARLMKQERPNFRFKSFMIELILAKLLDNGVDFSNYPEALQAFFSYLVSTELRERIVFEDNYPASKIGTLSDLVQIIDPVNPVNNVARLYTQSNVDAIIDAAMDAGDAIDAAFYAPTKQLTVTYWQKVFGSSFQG

crystal structure [13] = target: the molecule itself; test: crystal structure; remark: listed apart in the source

Rhizobiales sp. Trip13 (enzyme) gave a stoichiometry N [1] of 6.

“Ec HORMA-ΔN with the His6-tag removed (from UniProt D7Y2H3 12-172) (domain or fragment)” was tested, and the stoichiometry N (HORMA-ΔN per CdnC) [2] was 1 and the stoichiometry N (HORMA-ΔN per CdnC) [3] was 1.

`Nc1ncnc2c1ncn2[C@@H]1O[C@H](COP(=O)(O)OP(=O)(O)OP(=O)(O)O)[C@@H](O)[C@H]1O` [ATP] was tested, and the “crystal structure, 2.64 Å” value (Ec CdnC:HORMA:Trip13^EQ) was “with four subunits (monomers A-D) bound to ATP” and the “crystal structure, 1.44 Å” value (Ec CdnC) was “the active site is occupied by one molecule of ATP that was co-purified”.

“Ec HORMA-ΔN with N-terminal His6-tag (from UniProt D7Y2H3 12-172) (domain or fragment)” showed a stoichiometry N (HORMA-ΔN per CdnC (2:2 complex)) [4] of 1.

For `Nc1ncnc2c1ncn2[C@@H]1O[C@H](COP(=O)(O)O)[C@@H](O)[C@H]1O` [AMP], the crystal structure [5] was “contain either no ligand or AMP in the active site”.

B1: 40 bp dsDNA (5'-FAM Oligo #1/Oligo #2) (dsDNA)
DNA 1: CCTTTCGAAGACTCATCACGGAGAGCAGACATCATCTGGC
DNA 2: GCCAGATGATGTCTGCTCTCCGTGATGAGTCTTCGAAAGG
B1: no binding (Pa CdnD).

In the case of B2, the “stoichiometry N” value (crystal structure [6]) is reported as 6 and the “stoichiometry N” value [7] is reported as 6 Trip13^EQ per 1 CdnC:1 HORMA.

B3: Peptide 1 (EVMEFNP), tag cleaved (peptide)
peptide: EVMEFNP
B3: binds [8].

B4: P. aeruginosa ATCC27853 HORMA3 (purified, in vitro reconstitution) (natural protein)
chain: MTTVVSRTFRSSPHRDALQTWDAIVELLTQGKDGTARSELRAVTGVAASLIADQAPKSAPIVATCDGPRTRIYCLFDEDAIDGDDANEEVLGFEPLKGDWGVSLPCPKEQLGWVQSALKKHSSRIIARDLSQGIATQAQADAGQALSLDLGGFLKS
In the case of B4, the “stoichiometry N” value [9] is reported as 1 HORMA3 per CdnD and the “stoichiometry N” value [10] is reported as 1 HORMA3 per HORMA2.

B5: E. coli MS115-1 HORMA with N-terminal His6-tag (purified) (natural protein, UniProt D7Y2H3 1-172, looked up)
chain: MSSYSYTVAETQTFSVTHARHMAAKVATDLRRMQRFYGYPSDADIEAYEEELVVFLKAGYLGEVSYGFQKNNNWIEPTLRYTAGDLLGSGTDDDPGKIRPGKDVSGASFYSFMTYSSKYLNATQSEKDTALKDLPFKRVGAQSPGINGYLENDKTYSAGGRSLTRTSVRNFV
B5 was tested, and the binding result [11] was “binds” and the “stoichiometry N” value [12] was 1 HORMA per CdnC (1:1 complex) and 1 HORMA per CdnC (2:2 complex).

B6: P. aeruginosa ATCC27853 HORMA2 (purified alone, crystallised) (natural protein, UniProt P0DTF6 1-166, looked up)
chain: MSTVATYSYTHSVTYVTDNILKSLKDIILLSGLDPEHFADRWESNTRAIKTWLGTGDLRKVILEIYNPATDKLVTRWDIDIVYGWSDGDGSFWTDTEQLKYAIKKAGLLPSQAKYKLMLDTKPGRPDVEGWSKGSYRSTDGMVKQSLGSTVEHSGLAGQAGYWRQR
B6: binds (crystal structure [13]).

For B7, the “stoichiometry N” value [9] was 1 HORMA2 per CdnD.

— paper PMC7036143 (Molecular cell, 2020)
